# Assay results from patent US20230357384A1 (NEXTCURE, published 2023).
# Positions count from the first letter of the chain named.
# B1: 13B2 (antibody, V domains shown)
# VH: EIQLQQSGTELVKPGASVKISCKASGYSFTGYNMNWMKQSHGMSLEWIGNINPYYGSTSYNQKFKGKATLTIDKSSSTAYMQLNSLTSEDSAVYYCARDRKNWEYFFDYWGQGTTLTVSS
# VL: ETTVTQSPASLSMAIGEKVTIRCITSTDIDDDMNWYQQKPGKPPKLLISEGNTLRPGVPSRFSSSGYGTDFVFTIENMLSEDVADYYCLQSDNLPYTFGGGTKLEIK
# notes: Variable domains only
# B2: 7H7 (antibody, V domains shown)
# VH: EIQLQQSGAELVKPGASVKISCKASGYSFTGYNMNWVKQSHGKSLEWIGNINPYYGSTSYNQKFKGKATLTVDKSSNTAYMQLNSLTSEDSAVYYCARWGYGYDDWYFDVWGAGTTVTVSS
# VL: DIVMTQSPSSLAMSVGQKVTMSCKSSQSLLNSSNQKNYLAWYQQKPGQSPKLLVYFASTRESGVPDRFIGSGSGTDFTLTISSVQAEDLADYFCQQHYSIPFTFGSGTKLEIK
# notes: Variable domains only
# B3: 1H5 (antibody, V domains shown)
# VH: EVQLQQSGPELVKPGASVKMSCKASGYTFTDYYMNWVKQSHGKSLEWIGRVNPSNGVTSYNQKFKGKAALTVDKSLSTAYMQLNSLTSEDSAVYYCARDFLMDYWGQGTSVTVSS
# VL: DIVMTQSHKFMSTSVGDRVTITCKASQDVGTAVAWYQQKPGQSPKLLIYWASTRHTGVPDRFTGSGSGTDFTLTISNVQSEDLADYFCQQYSSYPTFGGGTKLEIK
# notes: Variable domains only
# B4: 2F7 (antibody, V domains shown)
# VH: EVQLQQSGPELVKPGASVKMSCKASGYTFTDYYMNWVKQSHGKSLEWIGRVYPSNSGASYNQKFKGKATLTVDKSLSTAYMQLNSLTSEDSAVYYCASSYYFDYWGQGTTLTVSS
# VL: B3 VL with V15I, T20N, Y36F, G99A, K102T, I105L
# notes: Variable domains only
# B5: 12A4 (antibody, V domains shown)
# VH: B3 VH with V57G, S59T, K63R, A69T, K74E
# VL: B3 VL with T20S, A34T, Q42L, I48F, Q89H, S93N
# notes: Variable domains only
# B6: 20C3 (antibody, V domains shown)
# VH: EVKLEESGGGLVQPGGSMKLSCVVSGFTFSNYWMNWVRQSPEKGLEWVAQIRLKSDNYATHYAESVKGRFTISRDDSKSSVYLQMNNLRAEDTGIYYCTGESNIYYGYFDYWGQGTTLTVSS
# VL: QIVLTQSPAIMSASPGEKVTMTCSASSSVSYMHWYQQKSGTSPKRWIYDTSKLASGVPARFSGSGSGTSYSLTISSMEAEDAATYYCQQWSGNPYTFGGGTKLEIK
# notes: Variable domains only
# B7: 14D3 (antibody, V domains shown)
# VH: EIQLQQSGAELVKPGASVKISCKASGYSFTGYNMNWVKQSHGKSLEWIGNITPYYGSASYNQKFKGKATLTVDKSSSTAYMQLNSLTSEDSAVYYCARRSYDYDENAMDYWGQGTSVTVSS
# VL: DIVMTQSHKFMSTSVGDRVSITCKASQDLSTAVAWYQQKPGQSPKLLIYSASYRYTGVPDRFTGSGSGTDFTFTISSVQAEDLAVYYCQQHYSTPLTFGAGTKLELK
# notes: Variable domains only
# B8: 10C6 (antibody, V domains shown)
# VH: EIQLQQSGAEMVKPGASVKISCKASGHSFTGYNMNWVKQSHEKSLEWIGNINPYYGSTSYNQKFKGKATLTVDKSSSTAYMQLNSLTSEDSAVYYCARGGYDDYFDYWGQGTTLTVSS
# VL: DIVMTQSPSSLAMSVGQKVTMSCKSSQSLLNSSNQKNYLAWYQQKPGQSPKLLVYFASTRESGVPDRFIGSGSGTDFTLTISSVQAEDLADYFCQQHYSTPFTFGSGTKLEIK
# notes: Variable domains only
# Tests used:
# human FLRT3 on cells [1] = biological target: T1, human FLRT3 on cells (human, UniProt Q9NZU0 29-649); experiment: flow cytometry (AF647 MFI), FLRT3-293T-OKT3 cells, antibody titration
# T1 construct: also called hFLRT3
# T1 sequence: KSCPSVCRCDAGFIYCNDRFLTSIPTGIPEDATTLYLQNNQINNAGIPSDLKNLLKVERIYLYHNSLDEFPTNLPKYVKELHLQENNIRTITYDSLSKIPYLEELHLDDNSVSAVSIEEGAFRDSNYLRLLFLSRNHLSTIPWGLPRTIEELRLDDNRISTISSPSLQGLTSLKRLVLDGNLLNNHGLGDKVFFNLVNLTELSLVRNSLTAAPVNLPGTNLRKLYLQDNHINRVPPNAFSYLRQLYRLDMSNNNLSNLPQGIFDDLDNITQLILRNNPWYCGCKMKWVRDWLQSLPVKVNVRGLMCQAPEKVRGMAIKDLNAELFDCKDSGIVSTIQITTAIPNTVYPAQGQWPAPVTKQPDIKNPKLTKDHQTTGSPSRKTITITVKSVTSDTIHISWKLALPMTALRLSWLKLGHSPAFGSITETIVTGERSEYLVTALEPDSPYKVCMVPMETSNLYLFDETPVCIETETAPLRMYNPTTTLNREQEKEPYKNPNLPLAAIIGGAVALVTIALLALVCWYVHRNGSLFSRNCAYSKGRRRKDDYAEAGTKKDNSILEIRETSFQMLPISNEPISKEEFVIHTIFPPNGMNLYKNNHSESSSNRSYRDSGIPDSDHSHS
# [2] = biological target: T2, FLRT3-His monomeric fusion protein (Homo sapiens (Human), UniProt Q9NZU0 29-528); experiment: Octet, FLRT3 antibodies and FLRT3 monomer
# T2 construct: also called FLRT3 monomer; not shown: His tag
# T2 sequence: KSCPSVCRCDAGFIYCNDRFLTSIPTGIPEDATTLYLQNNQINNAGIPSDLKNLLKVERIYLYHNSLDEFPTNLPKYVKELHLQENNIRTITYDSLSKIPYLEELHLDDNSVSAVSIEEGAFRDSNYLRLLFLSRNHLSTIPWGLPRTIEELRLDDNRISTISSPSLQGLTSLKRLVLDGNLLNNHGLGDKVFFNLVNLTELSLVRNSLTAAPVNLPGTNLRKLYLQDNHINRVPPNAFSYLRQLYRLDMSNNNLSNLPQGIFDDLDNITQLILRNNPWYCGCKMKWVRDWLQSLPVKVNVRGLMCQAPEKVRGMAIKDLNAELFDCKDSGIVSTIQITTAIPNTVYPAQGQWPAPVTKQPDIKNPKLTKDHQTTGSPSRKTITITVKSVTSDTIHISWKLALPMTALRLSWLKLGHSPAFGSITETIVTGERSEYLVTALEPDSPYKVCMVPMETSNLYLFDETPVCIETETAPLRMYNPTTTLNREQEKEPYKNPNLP
# [3] = biological target: T2, FLRT3-His monomeric fusion protein; experiment: kinetic affinity measurement with FLRT3-His monomer (Table 1)
# [4] = biological target: T3, FLRT3 (antigen of the binning assay of Table 2) (Homo sapiens (Human), UniProt Q9NZU0 29-528, limits assumed); experiment: antibody binning matrix (Table 2); competitor: 1H5
# T3 construct: the whole entry for FLRT3 is named
# T3 sequence: T2 sequence
# [5] = biological target: T3, FLRT3 (antigen of the binning assay of …); experiment: antibody binning matrix (Table 2); competitor: 2F7
# [6] = biological target: T3, FLRT3 (antigen of the binning assay of …); experiment: antibody binning matrix (Table 2); competitor: 15G11
# [7] = biological target: T3, FLRT3 (antigen of the binning assay of …); experiment: antibody binning matrix (Table 2); row '1X Kinetic' (no first antibody), column antibody taken as binder
# [8] = biological target: T3, FLRT3 (antigen of the binning assay of …); experiment: antibody binning matrix (Table 2); competitor: 14B7
# [9] = biological target: T3, FLRT3 (antigen of the binning assay of …); experiment: antibody binning matrix (Table 2); competitor: 5C2
# [10] = biological target: T3, FLRT3 (antigen of the binning assay of …); experiment: antibody binning matrix (Table 2); competitor: 14D3
# human FLRT3 on cells [11] = biological target: T1, human FLRT3 on cells; experiment: flow cytometry on 293T cells transfected with human FLRT3, normalised MFI, non-linear fit; Exp 2
# Description: (§1) MFI values of each group were normalized within that group- i.e. largest value 100% and smallest value 0%.
# human FLRT3 on cells [12] = biological target: T1, human FLRT3 on cells; experiment: flow cytometry on 293T cells transfected with human FLRT3, normalised MFI, non-linear fit; Exp 1
# Description: as §1
# human FLRT3 on cells [13] = biological target: T1, human FLRT3 on cells; experiment: flow cytometry on A549 cells (endogenous hFLRT3), normalised MFI, non-linear fit
# Experimental: Increasing concentrations of FLRT3 antibodies bound to A549 cells that express endogenous hFLRT3 (FIG. 19). Binding curves for the top three antibodies were performed (FIG. 20A). MFI values of each group were normalized within that group- i.e. largest value 100% and smallest value 0% (FIG. 20A). EC50 values were calculated based on non-linear regression fit (FIG. 20B).
# human FLRT3 on cells [14] = biological target: T1, human FLRT3 on cells; experiment: flow cytometry on 293T cells transfected with human FLRT3, normalised MFI, non-linear fit
# Description: as §1
# [15] = biological target: T4, mouse FLRT3 on transiently transfected 293T cells (mouse, UniProt Q8BGT1 29-649); experiment: flow cytometry (AF647 MFI), transiently transfected mFLRT3-293T cells
# T4 construct: also called mFLRT3
# T4 sequence: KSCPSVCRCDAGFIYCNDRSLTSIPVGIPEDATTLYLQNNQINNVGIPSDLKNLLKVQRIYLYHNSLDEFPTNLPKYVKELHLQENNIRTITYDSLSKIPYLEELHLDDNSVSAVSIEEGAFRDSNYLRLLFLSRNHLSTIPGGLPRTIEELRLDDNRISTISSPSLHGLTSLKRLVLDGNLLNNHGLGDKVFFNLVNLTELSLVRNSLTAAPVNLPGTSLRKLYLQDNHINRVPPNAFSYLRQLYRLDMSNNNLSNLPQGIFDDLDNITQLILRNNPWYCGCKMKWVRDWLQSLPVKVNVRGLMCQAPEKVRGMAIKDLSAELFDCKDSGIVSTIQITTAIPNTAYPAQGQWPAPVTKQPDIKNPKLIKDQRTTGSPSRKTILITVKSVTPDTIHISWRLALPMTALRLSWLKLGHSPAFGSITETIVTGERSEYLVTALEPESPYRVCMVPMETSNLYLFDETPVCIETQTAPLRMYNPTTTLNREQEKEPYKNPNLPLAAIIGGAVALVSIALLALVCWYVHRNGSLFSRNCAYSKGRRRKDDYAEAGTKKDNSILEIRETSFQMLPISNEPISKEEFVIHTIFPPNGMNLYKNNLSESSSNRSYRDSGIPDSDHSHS
Binder,Kd [3] [nM],koff [3] [s⁻¹],kon [3] [M⁻¹ s⁻¹],binning response (no name or unit printed) [4],binning response (no name or unit printed) [5],binning response (no name or unit printed) [6],binning response (no name or unit printed) [7],binning response (no name or unit printed) [8],binning response (no name or unit printed) [9],binning response (no name or unit printed) [10],other results
B1,–,–,–,–,–,–,–,–,–,–,binding result (human FLRT3 on cells [1]): no binding (tested: about 300 nM); binding result [2]: no binding
B2,≤ 0.001,≤ 1e-07,60500,–,–,–,–,–,–,–,–
B3,0.19,1.6e-05,140000,-0.0568,-0.0098,0.97,0.947,1.2,-0.26,0.549,EC50 (read off the curve) (human FLRT3 on cells [1]): ~10 nM
B4,–,0.000135,177000,-0.116,-0.0655,0.798,0.99,1.06,-0.398,0.38,EC50 (read off the curve) (human FLRT3 on cells [1]): ~8 nM
B5,0.218,3.24e-05,133000,–,–,–,–,–,–,–,EC50 (human FLRT3 on cells [11]): 17.7 nM; EC50 (human FLRT3 on cells [12]): 15.7 nM; EC50 (human FLRT3 on cells [13]): 251 nM
B6,2.21,0.000207,86200,–,–,–,–,–,–,–,–
B7,–,–,–,0.644,0.75,0.196,0.947,1.36,-0.101,-0.0406,EC50 (human FLRT3 on cells [14]): < 5 nM; EC50 (human FLRT3 on cells [11]): 3.24 nM; EC50 (human FLRT3 on cells [12]): 1.82 nM; EC50 (human FLRT3 on cells [13]): 8.21 nM; binding result [15]: binds
B8,–,–,–,–,–,–,–,–,–,–,binding result (human FLRT3 on cells [1]): no binding (tested: about 300 nM)
